Test results taken from US20240293512A1 (HANMI PHARM, published 2024).
Bridge positions count the residues as written; N and C are the ends. Square brackets hold non-standard residues; d marks the D form. Ends that are not written are not given here. * marks the point of attachment. Acetyl(2-(4-imidazolyl)) = O=C(Cc1c[nH]cn1)*; Aib = CC(C)(N)C(=O)O

T1: human GIP receptor (human, UniProt P48546 22-466)
T1 sequence (looked up): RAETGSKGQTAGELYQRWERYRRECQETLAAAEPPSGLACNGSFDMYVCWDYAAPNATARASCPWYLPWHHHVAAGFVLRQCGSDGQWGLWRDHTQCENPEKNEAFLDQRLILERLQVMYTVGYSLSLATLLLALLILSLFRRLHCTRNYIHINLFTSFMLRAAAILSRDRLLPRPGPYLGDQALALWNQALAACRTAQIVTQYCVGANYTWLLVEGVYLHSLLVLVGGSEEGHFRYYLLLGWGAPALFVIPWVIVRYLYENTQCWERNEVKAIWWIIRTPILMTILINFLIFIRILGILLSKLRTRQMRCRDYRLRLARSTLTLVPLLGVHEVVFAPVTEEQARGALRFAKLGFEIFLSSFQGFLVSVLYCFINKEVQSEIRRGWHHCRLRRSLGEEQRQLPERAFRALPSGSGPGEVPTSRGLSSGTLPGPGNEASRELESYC

B1: triple agonist of SEQ ID NO: 84 (peptide)
peptide: [Acetyl(2-(4-imidazolyl))][Aib]EGTFTSDYSIAMDEIHQKDFVDWLLAEC
modifications: bridge 16-20
B2: triple agonist of SEQ ID NO: 9 (peptide)
peptide: H[Aib]QGTFTSDVSKYLDGQAAQEFVAWLLAGC
B3: triple agonist of SEQ ID NO: 85 (peptide)
peptide: [Acetyl(2-(4-imidazolyl))][Aib]QGTFTSDYSIAMDEIHQKDFVNWLLAQC
modifications: bridge 16-20
B4: triple agonist of SEQ ID NO: 86 (peptide)
peptide: [Acetyl(2-(4-imidazolyl))][Aib]QGTFTSDYSKYLDEKRQKEFVNWLLAQC
modifications: bridge 16-20
B5: triple agonist of SEQ ID NO: 87 (peptide)
peptide: [Acetyl(2-(4-imidazolyl))][Aib]QGTFTSDYSIAMDEIHQKDFVNWLLNTC
modifications: bridge 16-20
B6: triple agonist of SEQ ID NO: 88 (peptide)
peptide: [Acetyl(2-(4-imidazolyl))][Aib]QGTFTSDYSKYLDEKRQKEFVQWLLNTKC
modifications: bridge 16-20
B7: triple agonist of SEQ ID NO: 89 (peptide)
peptide: [Acetyl(2-(4-imidazolyl))][Aib]QGTFTSDYSKYLDEKRQKEFVQWLLDTKC
modifications: bridge 16-20
B8: triple agonist of SEQ ID NO: 90 (peptide)
peptide: [Acetyl(2-(4-imidazolyl))][Aib]EGTFTSDYSIAMDEIHQKDFVNWLLAQKC
modifications: bridge 16-20
B9: triple agonist of SEQ ID NO: 91 (peptide)
peptide: [Acetyl(2-(4-imidazolyl))][Aib]EGTFTSDYSIAMDEIHQKDFVDWLLAEKC
modifications: bridge 16-20
B10: triple agonist of SEQ ID NO: 92 (peptide)
peptide: [Acetyl(2-(4-imidazolyl))][Aib]QGTFTSDYSIAMDEIHQKDFVNWLLAQKC
modifications: bridge 16-20
B11: triple agonist of SEQ ID NO: 93 (peptide)
peptide: [Acetyl(2-(4-imidazolyl))][Aib]QGTFTSDYSKYLDEKRQKEFVNWLLAQKC
modifications: bridge 16-20
B12: triple agonist of SEQ ID NO: 94 (peptide)
peptide: [Acetyl(2-(4-imidazolyl))][Aib]QGTFTSDYSIAMDEIHQKDFVNWLLNTKC
modifications: bridge 16-20
B13: triple agonist of SEQ ID NO: 10 (peptide)
peptide: H[Aib]QGTFTSDVSKYLDGQAAQEFVAWLLAGGGPSSGAPPPSC
B14: triple agonist of SEQ ID NO: 95 (peptide)
peptide: Y[Aib]QGTFTSDYSKYLDEKRAKEFVQWLLCHHPSSGQPPPS
modifications: bridge 16-20
B15: triple agonist of SEQ ID NO: 96 (peptide)
peptide: Y[Aib]QGTFTSDYSKYLDEKRAKEFVQWLLDHCPSSGQPPPS
modifications: bridge 16-20
B16: triple agonist of SEQ ID NO: 97 (peptide)
peptide: Y[Aib]QGTFTSDYSKYLDEKRAKEFVQWLLDCHPSSGQPPPS
modifications: bridge 16-20
B17: triple agonist of SEQ ID NO: 98 (peptide)
peptide: Y[Aib]QGTFTSDYSKALDEKAAKEFVNWLLDHHPSSGQPPPSC
modifications: bridge 16-20
B18: triple agonist of SEQ ID NO: 99 (peptide)
peptide: Y[Aib]QGTFTSDYSKALDEKAAKDFVNWLLDHHPSSGQPPPSC
modifications: bridge 16-20
B19: triple agonist of SEQ ID NO: 100 (peptide)
peptide: Y[Aib]QGTFTSDYSKALDEKAAKEFVQWLLDQHPSSGQPPPSC
modifications: bridge 16-20
B20: triple agonist of SEQ ID NO: 101 (peptide)
peptide: Y[Aib]QGTFTSDYSKALDEKAAKEFVNWLLDQHPSSGQPPPSC
modifications: bridge 16-20
B21: triple agonist of SEQ ID NO: 102 (peptide)
peptide: Y[Aib]QGTFTSDYSKALDEKAAKDFVNWLLDQHPSSGQPPPSC
modifications: bridge 16-20
B22: triple agonist of SEQ ID NO: 11 (peptide)
peptide: [Acetyl(2-(4-imidazolyl))]GEGTFTSDLSKYLDSRRQQLFVQWLKAGGPSSGAPPPSHG
B23: triple agonist of SEQ ID NO: 12 (peptide)
peptide: [Acetyl(2-(4-imidazolyl))]GEGTFISDLSKYMDEQAVQLFVEWLMAGGPSSGAPPPSHG
B24: triple agonist of SEQ ID NO: 13 (peptide)
peptide: [Acetyl(2-(4-imidazolyl))]GEGTFISDYSIQLDEIAVQDFVEWLLAQKPSSGAPPPSHG
B25: triple agonist of SEQ ID NO: 2 (peptide)
peptide: H[Aib]QGTFTSDVSSYLDGQAQKEFIAWLVKGC
B26: triple agonist of SEQ ID NO: 14 (peptide)
peptide: [Acetyl(2-(4-imidazolyl))]GQGTFTSDYSIQLDEIAVRDFVEWLKNGGPSSGAPPPSHG
B27: triple agonist of SEQ ID NO: 16 (peptide)
peptide: [Acetyl(2-(4-imidazolyl))]GQGTFTSDLSKQMDSEAQQLFIEWLKNGGPSSGAPPPSHG

The binders below were run against human GCG receptor (human, UniProt P47871 26-477) (assay: cell-based or functional assay).
Chain of human GCG receptor (P47871 26-477): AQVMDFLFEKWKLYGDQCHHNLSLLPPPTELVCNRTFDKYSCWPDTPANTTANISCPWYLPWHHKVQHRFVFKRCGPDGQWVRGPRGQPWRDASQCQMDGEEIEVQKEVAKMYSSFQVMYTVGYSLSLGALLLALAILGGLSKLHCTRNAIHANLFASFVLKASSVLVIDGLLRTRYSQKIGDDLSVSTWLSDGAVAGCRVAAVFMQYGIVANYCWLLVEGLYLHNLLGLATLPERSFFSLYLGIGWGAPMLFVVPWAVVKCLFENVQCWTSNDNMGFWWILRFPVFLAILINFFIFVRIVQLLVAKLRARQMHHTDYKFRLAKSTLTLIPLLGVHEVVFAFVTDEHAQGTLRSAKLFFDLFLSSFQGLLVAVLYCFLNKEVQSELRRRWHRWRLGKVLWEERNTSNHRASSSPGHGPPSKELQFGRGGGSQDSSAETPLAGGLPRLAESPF

Binder	In vitro activity compared with native peptide (%) vs Glucagon (cAMP EC50) [%]
B1	< 0.1
B2	0.13
B3	< 0.1
B4	0.4
B5	< 0.1
B6	0.3
B7	0.7
B8	< 0.1
B9	16.8
B10	< 0.1
B11	0.3
B12	< 0.1
B13	< 0.1
B14	0.4
B15	195
B16	62.8
B17	8.2
B18	14.9
B19	12.7
B20	13.9
B21	29.5
B22	< 0.1
B23	< 0.1
B24	< 0.1
B25	< 0.1
B26	< 0.1
B27	< 0.1

What follows are binders tested against T1, human GIP receptor (assay: cell-based or functional assay).

Binder	In vitro activity compared with native peptide (%) vs GIP (cAMP EC50) [%]
B1	< 0.1
B2	< 0.1
B3	0.3
B4	0.2
B5	< 0.1
B6	< 0.1
B7	< 0.1
B8	< 0.1
B9	0.3
B10	0.4
B11	0.7
B12	< 0.1
B13	< 0.1
B14	< 0.1
B15	5.2
B16	2.6
B17	47.1
B18	57.7
B19	118
B20	40.1
B21	58
B22	< 0.1
B23	< 0.1
B24	< 0.1
B25	< 0.1
B26	< 0.1
B27	< 0.1

What follows are binders tested against human GLP-1 receptor (human, UniProt P43220 24-463) (assay: cell-based or functional assay).

Binder	In vitro activity compared with native peptide (%) vs GLP-1 (cAMP EC50) [%]
B1	4.2
B2	32.1
B3	4.3
B4	28.4
B5	0.9
B6	9.6
B7	7.1
B8	7.4
B9	31.9
B10	0.8
B11	5.7
B12	0.5
B13	46
B14	2.1
B15	34.4
B16	10.5
B17	28.1
B18	20.9
B19	42.2
B20	23.2
B21	23.3
B22	1.4
B23	0.4
B24	< 0.1
B25	5.9
B26	28
B27	2.1
